Experimental data from publication PMC11167000, “Molecular mechanism of BMP signal control by Twisted gastrulation” (Nature Communications, 2024).

B1: human Growth Differentiation Factor 5 (GDF5, A382–R501) (ligand)
chain: MAPLATRQGKRPSKNLKARCSRKALHVNFKDMGWDDWIIAPLEYEAFHCEGLCEFPLRSHLEPTNHAVIQTLMNSMDPESTPPTCCVPTRLSPISILFIDSANNVVYKQYEDMVVESCGCR
notes: N-terminal methionine of the expression construct; Growth differentiation factor 5 (GDF5), human, UniProt P43026, residues A382–R501, no tags; Disulfide-linked dimer
B2: human BMP7 (ligand, UniProt P18075 293-431, looked up)
chain: STGSKQRSQNRSKTPKNQEALRMANVAENSSSDQRQACKKHELYVSFRDLGWQDWIIAPEGYAAYYCEGECAFPLNSYMNATNHAIVQTLVHFINPETVPKPCCAPTQLNAISVLYFDDSSNVILKKYRNMVVRACGCH
notes: Bone morphogenetic protein 7 (BMP7), human; source: bought: Miltenyi Biotec
B3: human Twisted gastrulation (TWSG1), full-length glycosylated TWSG1 (Cys26–Phe223) (natural protein)
chain: ETGCNKALCASDVSKCLIQELCQCRPGEGNCSCCKECMLCLGALWDECCDCVGMCNPRNYSDTPPTSKSTVEELHEPIPSLFRALTEGDTQLNWNIVSFPVAEELSHHENLVSFLETVNQPHHQNVSVPSNNVHAPYSSDKEHMCTVVYFDDCMSIHQCKISCESMGASKYRWFHNACCECIGPECIDYGSKTVKCMNCMF
modifications: Asn-linked glycans (predicted at Asn 52, 81 and 147); fully glycosylated for binding, cellular and SEC-MALS assays; cut down to one N-acetylglucosamine with endoglycosidase F1 for crystallization
notes: residues of the vector between the secretion signal and TWSG1; Twisted gastrulation (TWSG1), human, UniProt Q9GZX9, residues C26–F223; Monomer-dimer equilibrium in solution; also called full-length TWSG1; wild-type TWSG1; source: HEK-293T, transient transfection, secreted, purified (IMAC, SEC)
B4: human TWSG1 N-terminal domain (TWSG1 NTD, C26–S83) (domain or fragment)
chain: ETGCNKALCASDVSKCLIQELCQCRPGEGNCSCCKECMLCLGALWDECCDCVGMCNPRNYS
notes: residues of the vector between the secretion signal and TWSG1 NTD; Twisted gastrulation (TWSG1), human, N-terminal domain, residues C26–S83; Treated with endoglycosidase F1 in the purification described; The structural description gives the NTD as Cys26–Arg80; source: expressed and purified from dialyzed media similar to full-length TWSG1 (IMAC, HRV 3C cleavage, IMAC, SEC); not shown: mono Venus …
B5: human CHRDL2 (A25–T429) (natural protein)
chain: ETGARARPDMFCLFHGKRYSPGESWHPYLEPQGLMYCLRCTCSEGAHVSCYRLHCPPVHCPQPVTEPQQCCPKCVEPHTPSGLRAPPKSCQHNGTMYQHGEIFSAHELFPSRLPNQCVLCSCTEGQIYCGLTTCPEPGCPAPLPLPDSCCQACKDEASEQSDEEDSVQSLHGVRHPQDPCSSDAGRKRGPGTPAPTGLSAPLSFIPRHFRPKGAGSTTVKIVLKEKHKKACVHGGKTYSHGEVWHPAFRAFGPLPCILCTCEDGRQDCQRVTCPTEYPCRHPEKVAGKCCKICPEDKADPGHSEISSTRCPKAPGRVLVHTSVSPSPDNLRRFALEHEASDLVEIYLWKLVKGIFHLTQIKKVRKQDFQKEAQHFRLLAGPHEGHWNVFLAQTLELKVTASPDKVTKT
modifications: Asn-linked glycan (predicted at Asn 114)
notes: residues of the vector between the secretion signal and CHRDL2; Chordin-like protein 2 (CHRDL2), human, UniProt Q6WN34, residues A25–T429; also called Chordin superfamily member CHRDL2; source: expressed and purified from dialyzed media using IMAC followed by SEC as the full-length TWSG1
B6: human BMP2 (ligand, UniProt P12643 283-396, looked up)
chain: QAKHKQRKRLKSSCKRHPLYVDFSDVGWNDWIVAPPGYHAFYCHGECPFPLADHLNSTNHAIVQTLVNSVNSKIPKACCVPTELSAISMLYLDENEKVVLKNYQDMVVEGCGCR
notes: Bone morphogenetic protein 2 (BMP2), human; it speaks of BMP ligands in general as dimeric
B7: human TWSG1 C-terminal domain (TWSG1 CTD, T85–F223) (domain or fragment)
chain: ETGTPPTSKSTVEELHEPIPSLFRALTEGDTQLNWNIVSFPVAEELSHHENLVSFLETVNQPHHQNVSVPSNNVHAPYSSDKEHMCTVVYFDDCMSIHQCKISCESMGASKYRWFHNACCECIGPECIDYGSKTVKCMNCMF
notes: residues of the vector between the secretion signal and the TWSG1 domain; Twisted gastrulation (TWSG1), human, C-terminal domain, residues T85–F223; The methods sentence on this construct says 'followed by ETG, TWSG1 NTD' where CTD must be meant; The structural description gives the CTD as Pro87–Phe223; source: expressed and purified from dialyzed media using IMAC followed by SEC as the …

Key:
[1] = target: the molecule itself; test: crystal structure; TWSG1 NTD and GDF5 mixed 1:1 mol:mol, crystallized with CaCl2; 1.96 Å
[2] = target: B3; test: SPR; equilibrium binding, Biacore T200, 25 °C; BMP2, BMP7, GDF5 or CHRDL2 amine-coupled to a CM5 chip, TWSG1 proteins as analytes; 0.15 M NaCl, 20 mM HEPES pH 7.5, 2 mM CaCl2, 0.005% Tween 20; 1:1 binding isotherm; details: both partners purified
[3] = target: TWSG1 Ile40Ala (human, UniProt Q9GZX9 26-223, Ile40Ala, Asn-linked glycans (predicted Asn52, Asn81, Asn147; fully glycosylated, HEK-type expression without kifunensine); disulfide-rich. Parent construct inferred: the methods state that the C26-F223 constru); test: SPR; as a1, BMP7 immobilized at higher level (7372 RU); details: both partners purified
[4] = target: the molecule itself; test: SEC-MALS; Superdex 200 HR 10/30, 150 mM NaCl, 10 mM HEPES pH 7.5, 2 mM CaCl2, 21 °C; proteins at 2 mg/ml, 0.1 ml per injection
[5] = target: B5; test: as above; details: both partners purified
[6] = target: B1; test: SPR; equilibrium binding, Biacore T200, 25 °C; BMP2, BMP7, GDF5 or CHRDL2 amine-coupled to a CM5 chip, TWSG1 proteins as analytes; 0.15 M NaCl, 20 mM HEPES pH 7.5, 2 mM CaCl2, 0.005% Tween 20; 1:1 binding isotherm; details: both partners purified
[7] = target: B2; test: as above; details: both partners purified
[8] = target: B6; test: as above; details: both partners purified
[9] = target: B5; test: as above; details: both partners purified

Binder: B1
binding result [1]: binds | binding result [2]: binds

Binder: B2
Kd [3]: 454000 nM | binding result [2]: binds

Binder: B3
stoichiometry N [4]: 2 | binding result [5]: binds

Binder: B4
Kd [6]: 380 nM | Kd [7]: 94 nM | Kd [8]: 1010 nM

Binder: B5
binding result [4]: binds

Binder: B6
binding result [2]: binds

Binder: B7
fold weaker than the TWSG1 NTD [6]: ~100 fold | fold weaker than the TWSG1 NTD [7]: ~100 fold | fold weaker than the TWSG1 NTD [8]: ~100 fold | Kd [9]: 460 nM
